B1: DynI^dmA-GFP: Transfected GFP-tagged dynamin I double mutant, Ser-774 and Ser-778 to Ala (non-phosphorylatable) (protein)
chain: MGNRGMEDLIPLVNRLQDAFSAIGQNADLDLPQIAVVGGQSAGKSSVLENFVGRDFLPRGSGIVTRRPLVLQLVNSTTEYAEFLHCKGKKFTDFEEVRLEIEAETDRVTGTNKGISPVPINLRVYSPHVLNLTLVDLPGMTKVPVGDQPPDIEFQIRDMLMQFVTKENCLILAVSPANSDLANSDALKIAKEVDPQGQRTIGVITKLDLMDEGTDARDVLENKLLPLRRGYIGVVNRSQKDIDGKKDITAALAAERKFFLSHPSYRHLADRMGTPYLQKVLNQQLTNHIRDTLPGLRNKLQSQLLSIEKEVDEYKNFRPDDPARKTKALLQMVQQFAVDFEKRIEGSGDQIDTYELSGGARINRIFHERFPFELVKMEFDEKELRREISYAIKNIHGIRTGLFTPDLAFEATVKKQVQKLKEPSIKCVDMVVSELTSTIRKCSEKLQQYPRLREEMERIVTTHIREREGRTKEQVMLLIDIELAYMNTNHEDFIGFANAQQRSNQMNKKKTSGNQDEILVIRKGWLTINNIGIMKGGSKEYWFVLTAENLSWYKDDEEKEKKYMLSVDNLKLRDVEKGFMSSKHIFALFNTEQRNVYKDYRQLELACETQEEVDSWKASFLRAGVYPERVGDKEKASETEENGSDSFMHSMDPQLERQVETIRNLVDSYMAIVNKTVRDLMPKTIMHLMINNTKEFIFSELLANLYSCGDQNTLMEESAEQAQRRDEMLRMYHALKEALSIIGDINTTTVSTPMPPPVDDSWLQVQSVPAGRRAPTSAPTPQRRAPAVPPARPGSRGPAPGPPPAGSALGGAPPVPSRPGASPDPFGPPPQVPSRPNRAPPGVPSRSGQASPSRPESPRPPFDL
modifications: left off: large carriers
B2: DynI^dmE-GFP: Transfected GFP-tagged dynamin I double mutant, Ser-774 and Ser-778 to Glu (pseudo-phosphorylation) (protein)
chain: B1 chain with A774E, A778E
modifications: left off: large carriers
B3: DynI^WT-GFP: Transfected GFP-tagged wild-type dynamin I (protein, UniProt Q05193 1-864, looked up)
Dynamin-1: MGNRGMEDLIPLVNRLQDAFSAIGQNADLDLPQIAVVGGQSAGKSSVLENFVGRDFLPRGSGIVTRRPLVLQLVNATTEYAEFLHCKGKKFTDFEEVRLEIEAETDRVTGTNKGISPVPINLRVYSPHVLNLTLVDLPGMTKVPVGDQPPDIEFQIRDMLMQFVTKENCLILAVSPANSDLANSDALKVAKEVDPQGQRTIGVITKLDLMDEGTDARDVLENKLLPLRRGYIGVVNRSQKDIDGKKDITAALAAERKFFLSHPSYRHLADRMGTPYLQKVLNQQLTNHIRDTLPGLRNKLQSQLLSIEKEVEEYKNFRPDDPARKTKALLQMVQQFAVDFEKRIEGSGDQIDTYELSGGARINRIFHERFPFELVKMEFDEKELRREISYAIKNIHGIRTGLFTPDMAFETIVKKQVKKIREPCLKCVDMVISELISTVRQCTKKLQQYPRLREEMERIVTTHIREREGRTKEQVMLLIDIELAYMNTNHEDFIGFANAQQRSNQMNKKKTSGNQDEILVIRKGWLTINNIGIMKGGSKEYWFVLTAENLSWYKDDEEKEKKYMLSVDNLKLRDVEKGFMSSKHIFALFNTEQRNVYKDYRQLELACETQEEVDSWKASFLRAGVYPERVGDKEKASETEENGSDSFMHSMDPQLERQVETIRNLVDSYMAIVNKTVRDLMPKTIMHLMINNTKEFIFSELLANLYSCGDQNTLMEESAEQAQRRDEMLRMYHALKEALSIIGDINTTTVSTPMPPPVDDSWLQVQSVPAGRRSPTSSPTPQRRAPAVPPARPGSRGPAPGPPPAGSALGGAPPVPSRPGASPDPFGPPPQVPSRPNRAPPGVPSRSGQASPSRPESPRPPFDL
modifications: GFP tag
notes: Transfected GFP-tagged wild-type dynamin I
B4: DynI-PB2-GFP: GFP-tagged dynamin I with Arg-772 and Arg-773 mutated to Glu; fails to bind syndapin I (protein)
chain: B1 chain with R772E, R773E, A774S, A778S
modifications: left off: large carriers
B5: DynI-3B-GFP: GFP-tagged dynamin I point mutant P793A (site 3); fails to bind endophilin I (protein)
chain: B1 chain with A774S, A778S, P793A
modifications: left off: large carriers
B6: DynI-9A-GFP: GFP-tagged dynamin I R838E (site 9) mutant; abolishes amphiphysin I binding (protein, UniProt Q05193 1-864, looked up, variant R838E)
Dynamin-1: B3 Dynamin-1 with R838E
modifications: GFP tag

We go through six molecules from patent publication US20080306007A1, “AGENTS FOR PROPHYLAXIS OR TREATMENT OF NEUROLOGICAL RELATED DISEASES AND CONDITIONS” (Newcastle Innovation Limited, priority 2007, published 2008).

Residue numbers refer to the chain shown, from its start. Numbers in names are those of the source.

The first data set deals with cerebellar granule neurons (CGNs). Description: FM4-64 SV turnover in transfected cerebellar granule neurons (Example 1).
Settings: not given
It is filed as cell-based, rat. The method, then:
Primary cerebellar granule neuron (CGN) cultures were prepared from 7-day old Sprague-Dawley rat pups as previously described (Tan et al. 2003). In brief, neurons were plated on poly-D-lysine coated glass coverslips at a density of 1.5×10^5 cells/coverslip. Neurons were cultured in MEM containing Earle's salts plus 10% (v/v) foetal calf serum, 25 mM KCl, 30 mM glucose, 2 mM glutamine, 100 U/ml penicillin and 100 μg/ml streptomycin at 37° C., in a humidified atmosphere of 5% CO2. The culture medium was supplemented with 10 μM cytosine arabinoside after 24 hours. Transfections were carried out using an established calcium phosphate precipitation protocol. CGNs were transiently transfected with 1.5 μg of DNA between 7-10 days in vitro and were used 48 h later.
The effect of overexpression of dynamin I-GFP constructs on SV recycling in CGNs was monitored using the styryl dye FM4-64 (Molecular Probes). The extent of FM4-64 loading was quantified by normalising the fluorescence value at the start of stimulation to an arbitrary value and monitoring the total decrease on unloading with a dual KCl stimulus. The rate of FM4-64 unloading (as a measure of SV exocytosis) was estimated by determining the time taken for individual nerve terminals to lose 50% of their dye content on stimulation of unloading. These values were normalised to untransfected nerve terminals within the same field of view. SV exocytosis and recycling was also monitored using the pH-sensitive VAMP-GFP (synaptopHluorin). Dynamin constructs linked to mCerulean rather than to GFP were used in this part of the study. CGNs were co-transfected with synaptopHluorin and either DynI^WT-mCerulean, DynI^dmA-mCerulean or Dyn^dmE-mCerulean and stimulated with 50 mM KCl for 20 sec. The evoked synaptopHluorin response was recorded at 500 nm excitation and 510-550 nm emission (mCerulean fluorescence was not detectable at this wavelength). Co-expression of dynamin I was confirmed by recording at 430 nm excitation. Responses were analysed by calculating the increased fluorescence of synaptopHluorin over baseline for individual nerve terminals and then normalising the maxima and minima to 1 and 0.
To show the key role of the phosphorylation sites by independent methods in cultured neurons their role in SV turnover in nerve terminals of CGNs transfected with dynamin I-GFP was examined. SV turnover in neurons transfected with DynI^WT-GFP was indistinguishable from that in untransfected neurons (FIG. 6a-c). […] The extent of HM4-64 accumulation and thus SV turnover, was quantified from the change in fluorescence (AF) by unloading the CGN terminals with two sequential KCl stimuli (S1 and S2) (FIG. 6j). The total SV recycling pool was reduced by approximately 70% in CGNs transfected with DynI^dmA-GFP (28±3.5% of control) and 40% with DynI^dmE-GFP (64.4±6.2% of control) (FIG. 6k). However, transfection of DynI^WT-GFP had no detectable effect (100.1±5.2% of control, FIG. 6k).
For the molecule B1, the “reduction of total SV recycling pool / SV turnover” value is reported as “approximately 70%”. As for B2, the “reduction of total SV recycling pool / SV turnover” value is on record as about 40%.

Staying with this data set, now noted: two sequential KCl stimuli.
Regarding B1, the “total SV recycling pool (FM4-64)” value was 28±3.5 % of control.

For the molecule B2, the “total SV recycling pool (FM4-64)” value is 64.4±6.2 % of control.

On to B3, for which the “total SV recycling pool (FM4-64)” value is on record as 100.1±5.2 % of control.

The next data set shares this test system. Description: FM4-64 synaptic vesicle recycling in transfected CGNs (Example 2). It is filed as cell-based, rat. The conditions noted are these: single 50 mM KCl stimulus. The method, then:
The effect of overexpression of dynamin constructs on synaptic vesicle recycling in CGNs was monitored using the styryl dye FM4-64. Neurons were removed from the culture medium and left to repolarise for 10 min in incubation medium (170 mM NaCl, 3.5 mM KCl, 0.4 mM KH2PO4, 20 mM TES (N-tris[hydroxy-methyl]-methyl-2-aminoethane-sulphonic acid), 5 mM NaHCO3, 5 mM glucose, 1.2 mM Na2SO4, 1.2 mM MgCl2, 1.3 mM CaCl2, pH 7.4). Neurons were then loaded with FM4-64 by evoking SV recycling using KCl stimulation medium (incubation medium supplemented with 50 mM KCl and 10 μM FM4-64, 50 mM NaCl being removed to maintain osmolarity) for 2 min. Cells were washed with incubation medium and mounted on an epifluorescence microscope (Olympus IX81). After 10 min, FM4-64 was unloaded from the cells by exposure to a 30 s pulse of stimulation medium. Transfected neurons were visualised using a Olympus Plan-Apochromat x40 objective at 480 nm excitation and a band-pass emission filter of 515-555 nm. FM4-64 unloading was monitored at 555 nm excitation and a long pass emission filter of 600 nm. The decrease in fluorescence intensity of FM4-64 loaded nerve terminals on stimulation was visualised using a Hammamatsu Orca-ERG CCD digital camera (Hammamatsu City, Japan) and Metamorph 6.3 imaging software (Molecular Devices, Downingtown, Pa.). The extent of FM4-64 unloading was quantified by normalising the fluorescence value at the start of stimulation to an arbitrary value and monitoring the total decrease in fluorescence on unloading with the KCl stimulus. The kinetics of FM4-64 unloading were estimated by normalising the start and completion of unloading to 1 and 0 respectively. Other methods employed in this study are as described in Example 1.
Synaptic vesicle turnover in neurons transfected with DynI-WT-GFP was indistinguishable from that in untransfected neurons. […] The extent of synaptic vesicle turnover was quantified by unloading the terminals with a single 50 mM KCl stimulus, which is considered mild. The total synaptic vesicle recycling pool was unaffected in CGNs transfected with DynI-WT-GFP, while after transfection with DynI-2B-GFP it was reduced. The inhibition can be solely accounted for by an effect on SV endocytosis, since there was no effect on the kinetics of dye unloading. Next, the effects of DynI-PB2-GFP and DynI-3B-GFP on SVE were examined. These two mutants were chosen since they specifically fail to bind syndapin I and endophilin I, respectively, providing a clear distinction between them.
Again, there was no effect on exocytosis, indicating an inhibition of SVE.
In the case of B4, the “total synaptic recycling pool (FM4-64)” value is 59.5±4.3 % of control. With B5, the “total synaptic recycling pool (FM4-64)” value was 56.8±4.4 % of control. On to B3, for which the “total synaptic recycling pool (FM4-64)” value was 94.0±5.1 % of control. Take B6: the “total synaptic recycling pool (FM4-64)” value is recorded as 71.9±2.7 % of control.
